Laboratory results from patent US20140120109A1 (Regeneron, published 2014).
Substitutions are numbered along the chain they refer to. Each block holds one binder with its values, some of them ahead of it.

Columns and labels:
[1] = target: T1, Fhm, hTL1A(Q167R), soluble, CHO-expressed, residues 72-251 of SEQ ID NO:246 (human, UniProt O95150 72-251); test: ELISA, blocks FHM (150 pM) binding hDR3-Fc
T1 construct: also called Fhm (CHO); FHM (CHO)
T1 chain: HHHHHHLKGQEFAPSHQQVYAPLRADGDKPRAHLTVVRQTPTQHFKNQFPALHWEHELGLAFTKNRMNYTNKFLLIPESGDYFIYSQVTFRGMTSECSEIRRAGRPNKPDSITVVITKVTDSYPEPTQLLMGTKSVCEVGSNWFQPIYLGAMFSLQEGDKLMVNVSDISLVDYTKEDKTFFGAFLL
Description: The ability of antibodies to block human TL1A binding to its cognate receptors, the DR3 and DcR3 receptors, was measured using a competition sandwich ELISA. In addition, blocking of a human TL1A variant FHM (human TL1A Q167R) and the cynomolgus monkey (Macaca fascicularis) TL1A (MfTL1A) protein binding to the human DR3 or DcR3 receptors was measured in the same manner. Constant amounts of biotinylated human TL1A or FHM (both expressed with a 6-His tag in CHO cells) or biotinylated MfTL1A (expressed in CHO cells) were separately titrated with varying amounts of antibodies. The antibody-protein complexes were incubated in solution (1 hr, 25° C.) and then transferred to microtiter plates coated with human DR3 (hDR3) or human DcR3 (hDcR3) expressed as human IgG1 Fc fusion proteins. After one hour at 25° C. the wells were washed, and bound human or monkey TL1A was detected with streptavidin conjugated with horseradish peroxidase (HRP). Wells were developed with a TMB solution to produce a colorimetric reaction and quenched with aqueous sulfuric acid before reading absorbance at 450 nm on a Perkin-Elmer Victor X5 plate reader. A sigmoidal dose-response curve was fit to the data using the Prism™ data analysis package. […] Both fully human anti-hTL1A mAbs and comparator antibodies, i.e., control mAb1 (an anti-hTL1A antibody with heavy and light chain variable domains having the amino acid sequences corresponding to SEQ ID NOS:21 and 27, respectively, of US 2009/0280116) and control mAb3 (an anti-hTL1A antibody with heavy and light chain variable domains having the amino acid sequences corresponding to SEQ ID NOS:57 and 48, respectively, of US 2009/0280116), were included in the study. NB: No binding under the conditions tested; NT: Not tested. Concentrations of biotinylated soluble ligands: (1) 150 pM; (2) 500 pM; (3) 10 pM; and (4) 50 pM.

[2] = target: T2, cynomolgus monkey TL1A, soluble, E. coli-expressed, residues 72-251 of SEQ ID NO:248 (cynomolgus monkey (Macaca fascicularis), UniProt O95150 72-251 (human entry)); test: SPR 37C, mAb captured
T2 construct: with or without N-terminal Met; also called MfTL1A (E. Coli)
T2 chain: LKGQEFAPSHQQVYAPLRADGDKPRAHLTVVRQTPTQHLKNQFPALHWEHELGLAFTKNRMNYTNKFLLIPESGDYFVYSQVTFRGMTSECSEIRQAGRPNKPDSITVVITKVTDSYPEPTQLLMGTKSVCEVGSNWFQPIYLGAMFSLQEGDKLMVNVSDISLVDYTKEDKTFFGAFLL
Method in brief: (§1)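 Biacore T100 SPR with captured mAb and soluble TL1A/Fhm analyte; ka and kd fitted to a 1:1 model assuming monomeric TL1A. KD = kd/ka; t1/2 (min) = ln2/(60·kd).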

[3] = target: T3, human TL1A, soluble, CHO-expressed, residues 72-251 of SEQ ID NO:244 with N-terminal His6-tag (human, UniProt O95150 72-251); test: SPR 37C, mAb captured
T3 construct: also called hTL1A; hTL1A (CHO)
T3 sequence: T1 chain with R102Q
Method in brief: as §1

[4] = target: T4, cynomolgus monkey TL1A, soluble, CHO-expressed, residues 72-251 of SEQ ID NO:248 with N-terminal His6-tag (cynomolgus monkey (Macaca fascicularis), UniProt O95150 72-251 (human entry)); test: SPR 37C, mAb captured
T4 construct: also called MfTL1A; MfTL1A (CHO)
T4 chain: T1 chain with F45L, I84V, R102Q
Method in brief: as §1

[5] = target: T5, mouse TL1A, soluble, CHO-expressed, residues 76-252 of SEQ ID NO:250 with N-terminal His6-tag (mouse, UniProt Q5UBV8 76-252); test: SPR 37C, mAb captured
T5 construct: also called mTL1A; mTL1A (CHO)
T5 sequence: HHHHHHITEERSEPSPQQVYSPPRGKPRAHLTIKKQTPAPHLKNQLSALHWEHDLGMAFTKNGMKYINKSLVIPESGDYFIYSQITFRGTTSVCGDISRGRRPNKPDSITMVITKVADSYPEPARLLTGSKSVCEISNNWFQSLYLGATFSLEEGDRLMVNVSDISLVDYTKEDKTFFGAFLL
Method in brief: as §1

[6] = target: T6, Fhm, hTL1A(Q167R), soluble, E. coli-expressed, residues 72-251 of SEQ ID NO:246 (human, UniProt O95150 72-251); test: SPR 37C, mAb captured
T6 construct: with or without N-terminal Met
T6 chain: T2 chain with L39F, V78I, Q96R
Method in brief: as §1

- IC50 [1]: 0.044 nM
- Kd [2]: 0.281 nM
- t1/2 [2]: 1.23 h
- Kd [3]: 0.177 nM
- t1/2 [3]: 2.15 h
- Kd [4]: 0.173 nM
- t1/2 [4]: 2.07 h
- binding result [5]: no binding (tested: up to 100 nM)
- Kd [6]: 0.207 nM
- t1/2 [6]: 1.18 h
B1: H4H1745P (antibody, human IgG4 S228P, V domains shown)
VH: EVQLVESGGGLVQPGGSLRLSCAASGFTFSSYAMTWVRQAPGKGLEWVSGVSGRGGSTYYADSVKGRFTISRDNSKNTLYLQMNSLRAEDTAVYYCAYWDISSFDYWGQGTLVTVSS
VL: DIQLTQSPSFLSASVGDRVTITCWASQGISTYLAWYQQKPGKTPKLLIYAASTLQSGVPSRFSGSGSGTDFTLTISSLQPEDFATYYCQQFNSYPLTFGGGTKVEIK

- IC50 [1]: 0.023 nM
- Kd [2]: 0.289 nM
- t1/2 [2]: 0.667 h
- Kd [3]: 0.00761 nM
- t1/2 [3]: 31.9 h
- Kd [4]: 0.00201 nM
- t1/2 [4]: 96.4 h
- binding result [5]: no binding (tested: up to 100 nM)
- Kd [6]: 0.174 nM
- t1/2 [6]: 0.7 h
B2: H4H1719P (antibody, human IgG4 S228P, V domains shown)
VH: EVQLVESGGGLVQPGRSLRLSCVASGFTFQDYAMHWVRQAPGKGLEWVSGINWISDDMGYADSVMGRFTISRDNAKNSLYLQMDSLRAEDTALYYCAKDKGLRFLDYVMDVWGQGTTVTVSA
VL: DIVMTQSPLSLPVTPGEPASISCRSTQSLLHRNGHNYLHWYLHKPGQSPQLLIHLGSNRASGVPDRFSGSGSGTDFTLKISRVEAEDVGVYYCMQALQTPYTFGQGTKLEIK

- IC50 [1]: 0.152 nM
- Kd [2]: 4.2 nM
- t1/2 [2]: 0.0667 h
- Kd [3]: 0.571 nM
- t1/2 [3]: 0.85 h
- Kd [4]: 0.465 nM
- t1/2 [4]: 1 h
- binding result [5]: no binding (tested: up to 100 nM)
- Kd [6]: 3.1 nM
- t1/2 [6]: 0.0667 h
B3: H4H1738P (antibody, human IgG4 S228P, V domains shown)
VH: EVQLVESGGALVKPGGSLRLSCAVSGFTFINDWMNWVRQAPGKGLEWVGRIKSTTDGGTTDDAAPVKGRFTISRDDSKNTLYLQMNSLKTEDTAVYYCTRDRNRQRNYFYDGMDVWGQGTTVTVSA
VL: B2 VL with L9V, T26S, S28R, R32N, H35N, H39D, H43Q, H54Y, I80V
